Source: patent US20230212319A1, “NOVEL ANTIGEN BINDING DOMAINS AND SYNTHETIC ANTIGEN RECEPTORS INCORPORATING THE SAME” (University of Southern California, priority 2020, published 2023)

B1: 22240 (protein)
chain: MALPVTALLLPLALLLHAARPDIQMTQSPSSLSASVGDRVTITCKASDHINNWLAWYQQKPGQAPKLLIYGATTLETGVPSRFSGSGSGTDYTLTISSLQPEDFATYYCQQSWNTPWTFGQGTKLEIKRLEDLKNVFPPEVAVFEPSEAEISHTQKATLVCLATGFYPDHVELSWWVNGKEVHSGVCTDPQPLKEQPALNDSRYCLSSRLRVSATFWQNPRNHFRCQVQFYGLSENDEWTQDRAKPVTQIVSAEAWGRADCGFTSESYQQGVLSATILYEILLGKATLYAVLVSALVLMAMVKRKDSRGRAKRSGSGATNFSLLKQAGDVEENPGPTSATMDWIWRILFLVGAATGAHSGPYINIYNAEPANPSEKNSPSTQYAYGGGSQLGPYELWELSHGSGGSGGGGSGGGGSGGGGSFEQVQLQQPGAELVKPGASVKMSCKASGYAFSSYWINWMKQKPGQGLEWIGQIYPGDGDTNYNGKFKGRATLTADTSSSTAYMQLSSLTSEDSAVYFCARSITTVVGCAMDYWGQGTSVTVSSTRIQNPDPAVYQLRDSKSSDKSVCLFTDFDSQTNVSQSKDSDVYITDKCVLDMRSMDFKSNSAVAWSNKSDFACANAFNNSIIPEDTFFPSPESSCDVKLVEKSFETDTNLNFQNLSVIGFRILLLKVAGFNLLMTLRLWSSRAKRSGSGVKQTLNFDLLKLAGDVESNPGPSRGHMTEYKPTVRLATRDDVPRAVRTLAAAFADYPATRHTVDPDRHIERVTELQELFLTRVGLDIGKVWVADDGAAVAVWTTPESVEAGAVFAEIGPRMAELSGSRLAAQQQMEGLLAPHRPKEPAWFLATVGVSPDHQGKGLGSAVVLPGVEAAERAGVPAFLETSAPRNLPFYERLGFTVTADVEVPEGPRTWCMTRKPGA
B2: 22241 (protein)
chain: MALPVTALLLPLALLLHAARPDIQMTQSPSSLSASVGDRVTITCKASDHINNWLAWYQQKPGQAPKLLIYGATTLETGVPSRFSGSGSGTDYTLTISSLQPEDFATYYCQQSWNTPWTFGQGTKLEIKRLEDLKNVFPPEVAVFEPSEAEISHTQKATLVCLATGFYPDHVELSWWVNGKEVHSGVCTDPQPLKEQPALNDSRYCLSSRLRVSATFWQNPRNHFRCQVQFYGLSENDEWTQDRAKPVTQIVSAEAWGRADCGFTSESYQQGVLSATILYEILLGKATLYAVLVSALVLMAMVKRKDSRGRAKRSGSGATNFSLLKQAGDVEENPGPTSATMDWIWRILFLVGAATGAHSYINIYNAEPANPSEKNSPSTQYAYGSGSSYINIYNAEPANPSEKNSPSTQYAYGSGGSYINIYNAEPANPSEKNSPSTQYAYGSGSSSYINIYNAEPANPSEKNSPSTQYAYGSGSGSYINIYNAEPANPSEKNSPSTQYAYGPSGSGGGGSGGGGSGGGGSFEQVQLQQPGAELVKPGASVKMSCKASGYAFSSYWINWMKQKPGQGLEWIGQIYPGDGDTNYNGKFKGRATLTADTSSSTAYMQLSSLTSEDSAVYFCARSITTVVGCAMDYWGQGTSVTVSSTRIQNPDPAVYQLRDSKSSDKSVCLFTDFDSQTNVSQSKDSDVYITDKCVLDMRSMDFKSNSAVAWSNKSDFACANAFNNSIIPEDTFFPSPESSCDVKLVEKSFETDTNLNFQNLSVIGFRILLLKVAGFNLLMTLRLWSSRAKRSGSGVKQTLNFDLLKLAGDVESNPGPSRGHMTEYKPTVRLATRDDVPRAVRTLAAAFADYPATRHTVDPDRHIERVTELQELFLTRVGLDIGKVWVADDGAAVAVWTTPESVEAGAVFAEIGPRMAELSGSRLAAQQQMEGLLAPHRPKEPAWFLATVGVSPDHQGKGLGSAVVLPGVEAAERAGVPAFLETSAPRNLPFYERLGFTVTADVEVPEGPRTWCMTRKPGA
B3: 22243 (protein)
chain: MALPVTALLLPLALLLHAARPACQDKLTQWPKWLEGTGGGGSGGGGSGGGGSEFDIQMTQSPSSLSASVGDRVTITCKASDHINNWLAWYQQKPGQAPKLLIYGATTLETGVPSRFSGSGSGTDYTLTISSLQPEDFATYYCQQSWNTPWTFGQGTKLEIKRLEDLKNVFPPEVAVFEPSKAEIAHTQKATLVCLATGFYPDHVELSWWVNGKEVHSGVCTDPQPLKEQPALNDSRYCLSSRLRVSATFWQNPRNHFRCQVQFYGLSENDEWTQDRAKPVTQIVSAEAWGRADCGITSASYHQGVLSATILYEILLGKATLYAVLVSALVLMAMVKRKDSRGRAKRSGSGATNFSLLKQAGDVEENPGPTSATMDWIWRILFLVGAATGAHSGPQVQLQESGGGLAQAGGSLRLSCAASGRTFSMGWFRQAPGKEREFVAAITYSGGSPYYASSVRGRFTISRDNAKNTVYLQMNSLKPEDTAVYYCAANPTYGSDWNAENWGQGTQVTVSSGSGGGGSGGGGSGGGGSFEQVQLQQPGAELVKPGASVKMSCKASGYAFSSYWINWMKQKPGQGLEWIGQIYPGDGDTNYNGKFKGRATLTADTSSSTAYMQLSSLTSEDSAVYFCARSITTVVGCAMDYWGQGTSVTVSSTRIQNPDPAVYQLRDSKSSDKSVCLFTDFDSQTNVSQSKDSDVYITDKCVLDMRSMDFKSNSAVAWSNKSDFACANAFNNSIIPEDTFFPSSDVPCDVKLVEKSFETDTNLNFQNLSVIGFRILLLKVAGFNLLMTLRLWSSRAKRSGSGVKQTLNFDLLKLAGDVESNPGPSRGHMTEYKPTVRLATRDDVPRAVRTLAAAFADYPATRHTVDPDRHIERVTELQELFLTRVGLDIGKVWVADDGAAVAVWTTPESVEAGAVFAEIGPRMAELSGSRLAAQQQMEGLLAPHRPKEPAWFLATVGVSPDHQGKGLGSAVVLPGVEAAERAGVPAFLETSAPRNLPFYERLGFTVTADVEVPEGPRTWCMTRKPGA
B4: 22244 (protein)
chain: MALPVTALLLPLALLLHAARPDIQMTQSPSSLSASVGDRVTITCKASDHINNWLAWYQQKPGQAPKLLIYGATTLETGVPSRFSGSGSGTDYTLTISSLQPEDFATYYCQQSWNTPWTFGQGTKLEIKRLEDLKNVFPPEVAVFEPSEAEISHTQKATLVCLATGFYPDHVELSWWVNGKEVHSGVCTDPQPLKEQPALNDSRYCLSSRLRVSATFWQNPRNHFRCQVQFYGLSENDEWTQDRAKPVTQIVSAEAWGRADCGFTSESYQQGVLSATILYEILLGKATLYAVLVSALVLMAMVKRKDSRGRAKRSGSGATNFSLLKQAGDVEENPGPTSATMDWIWRILFLVGAATGAHSGPSACPYSNPSLCSGSGGGGSGGGGSGGGGSFEQVQLQQPGAELVKPGASVKMSCKASGYAFSSYWINWMKQKPGQGLEWIGQIYPGDGDTNYNGKFKGRATLTADTSSSTAYMQLSSLTSEDSAVYFCARSITTVVGCAMDYWGQGTSVTVSSTRIQNPDPAVYQLRDSKSSDKSVCLFTDFDSQTNVSQSKDSDVYITDKCVLDMRSMDFKSNSAVAWSNKSDFACANAFNNSIIPEDTFFPSPESSCDVKLVEKSFETDTNLNFQNLSVIGFRILLLKVAGFNLLMTLRLWSSRAKRSGSGVKQTLNFDLLKLAGDVESNPGPSRGHMTEYKPTVRLATRDDVPRAVRTLAAAFADYPATRHTVDPDRHIERVTELQELFLTRVGLDIGKVWVADDGAAVAVWTTPESVEAGAVFAEIGPRMAELSGSRLAAQQQMEGLLAPHRPKEPAWFLATVGVSPDHQGKGLGSAVVLPGVEAAERAGVPAFLETSAPRNLPFYERLGFTVTADVEVPEGPRTWCMTRKPGA
B5: 22239 (protein)
chain: MALPVTALLLPLALLLHAARPACPYINIYNAEPANPSEKNSPTQYAYGTGGGGSGGGGSGGGGSEFDIQMTQSPSSLSASVGDRVTITCKASDHINNWLAWYQQKPGQAPKLLIYGATTLETGVPSRFSGSGSGTDYTLTISSLQPEDFATYYCQQSWNTPWTFGQGTKLEIKRLEDLKNVFPPEVAVFEPSEAEISHTQKATLVCLATGFYPDHVELSWWVNGKEVHSGVCTDPQPLKEQPALNDSRYCLSSRLRVSATFWQNPRNHFRCQVQFYGLSENDEWTQDRAKPVTQIVSAEAWGRADCGFTSESYQQGVLSATILYEILLGKATLYAVLVSALVLMAMVKRKDSRGRAKRSGSGATNFSLLKQAGDVEENPGPTSATMDWIWRILFLVGAATGAHSGPQLGPYELWELSHGSGGGGSGGGGSGGGGSFEQVQLQQPGAELVKPGASVKMSCKASGYAFSSYWINWMKQKPGQGLEWIGQIYPGDGDTNYNGKFKGRATLTADTSSSTAYMQLSSLTSEDSAVYFCARSITTVVGCAMDYWGQGTSVTVSSTRIQNPDPAVYQLRDSKSSDKSVCLFTDFDSQTNVSQSKDSDVYITDKCVLDMRSMDFKSNSAVAWSNKSDFACANAFNNSIIPEDTFFPSPESSCDVKLVEKSFETDTNLNFQNLSVIGFRILLLKVAGFNLLMTLRLWSSRAKRSGSGVKQTLNFDLLKLAGDVESNPGPSRGHMTEYKPTVRLATRDDVPRAVRTLAAAFADYPATRHTVDPDRHIERVTELQELFLTRVGLDIGKVWVADDGAAVAVWTTPESVEAGAVFAEIGPRMAELSGSRLAAQQQMEGLLAPHRPKEPAWFLATVGVSPDHQGKGLGSAVVLPGVEAAERAGVPAFLETSAPRNLPFYERLGFTVTADVEVPEGPRTWCMTRKPGA
B6: 22238 (protein)
chain: MALPVTALLLPLALLLHAARPDIQMTQSPSSLSASVGDRVTITCKASDHINNWLAWYQQKPGQAPKLLIYGATTLETGVPSRFSGSGSGTDYTLTISSLQPEDFATYYCQQSWNTPWTFGQGTKLEIKRLEDLKNVFPPEVAVFEPSEAEISHTQKATLVCLATGFYPDHVELSWWVNGKEVHSGVCTDPQPLKEQPALNDSRYCLSSRLRVSATFWQNPRNHFRCQVQFYGLSENDEWTQDRAKPVTQIVSAEAWGRADCGFTSESYQQGVLSATILYEILLGKATLYAVLVSALVLMAMVKRKDSRGRAKRSGSGATNFSLLKQAGDVEENPGPTSATMDWIWRILFLVGAATGAHSQLGPYELWELSHGSGSGSGSQLGPYELWELSHSGGGSGQLGPYELWELSHGSSGPEVQLVESGGGLVQAGGSLRLSCAASGRTFSMGWFRQAPGKEREFVAAITYSGGSPYYADSVKGRFTISRDNAKNTVYLQMNSLKPEDTAVYYCAANPTYGSDWNAENWGQGTQVTVSSGSGGGGSGGGGSGGGGSFEQVQLQQPGAELVKPGASVKMSCKASGYAFSSYWINWMKQKPGQGLEWIGQIYPGDGDTNYNGKFKGRATLTADTSSSTAYMQLSSLTSEDSAVYFCARSITTVVGCAMDYWGQGTSVTVSSTRIQNPDPAVYQLRDSKSSDKSVCLFTDFDSQTNVSQSKDSDVYITDKCVLDMRSMDFKSNSAVAWSNKSDFACANAFNNSIIPEDTFFPSPESSCDVKLVEKSFETDTNLNFQNLSVIGFRILLLKVAGFNLLMTLRLWSSRAKRSGSGVKQTLNFDLLKLAGDVESNPGPSRGHMTEYKPTVRLATRDDVPRAVRTLAAAFADYPATRHTVDPDRHIERVTELQELFLTRVGLDIGKVWVADDGAAVAVWTTPESVEAGAVFAEIGPRMAELSGSRLAAQQQMEGLLAPHRPKEPAWFLATVGVSPDHQGKGLGSAVVLPGVEAAERAGVPAFLETSAPRNLPFYERLGFTVTADVEVPEGPRTWCMTRKPGA

Test system: RAJI cells
Assay: JNG assay, co-culture with RAJI cells
Format: cell-based
Conditions: JNG cells expressing construct, co-culture with Raji
How it was run: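 Read-out is NFAT-driven GFP measured by flow cytometry after ~4–18 h co-culture of SAR-expressing JNG cells with target cells (E:T about 1:2). SARs were introduced by lentiviral spinfection and selected with puromycin or blasticidin when possible; scores (+/- to 5+ ≈ 5–50% GFP+) are relative to parental JNG cells.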

With B1 as the molecule, how does the “NFAT-GFP ASSAY: Raji” value read?
The value was “Raji (3+) (refer to approximately 5%, 10%, 20%, 30%, 40% and 50% GFP positive cells)”.

How did the “NFAT-GFP ASSAY: Raji” value turn out when B2 was run?
The value was “Raji (4+) (refer to approximately 5%, 10%, 20%, 30%, 40% and 50% GFP positive cells)”.

For B3, which “NFAT-GFP ASSAY: Raji” value is on record?
The value was “Raji (3+) (refer to approximately 5%, 10%, 20%, 30%, 40% and 50% GFP positive cells)”.

For B4, which “NFAT-GFP ASSAY: Raji” value is on record?
Its value is “Raji (+/-) (refer to approximately 5%, 10%, 20%, 30%, 40% and 50% GFP positive cells)”.

Which “NFAT-GFP ASSAY: Raji” value does the source give for B5 here?
Its value is “Raji (+) (refer to approximately 5%, 10%, 20%, 30%, 40% and 50% GFP positive cells)”.

How did the “NFAT-GFP ASSAY: Raji” value turn out when B6 was run?
Its value is “Raji (+) (refer to approximately 5%, 10%, 20%, 30%, 40% and 50% GFP positive cells)”.
